Drawing on the Human Domainome abundance scans (Beltran et al. 2025), this text covers abundance fitness for 40 variants.

The chains are these.
B1: SWI/SNF-related matrix-associated actin-dependent regulator of chromatin subfamily B member 1, residues 181 to 248; numbered along this chain, Q12824 (parent)
chain: SQPEVLVPIRLDMEIDGQKLRDAFTWNMNEKLMTPEMFSEILCDDLDLNPLTFVPAIASAIRQQIESY

± gives the uncertainty stated by the source.

The variants in this data set derive from B1. Briefly: abundance fitness (aPCA) (normalised: wild type 0, dead -1); higher = more abundant; growth selection in yeast, the domain comes from the species named. Conditions: Homo sapiens.
For the variant SQPEVLVPIRLDMEIDGQKLRDFFTWNMNEKLMTPEMFSEILCDDLDLNPLTFVPAIASAIRQQIESY [A23F], the abundance fitness is -0.039 ± 0.093. Take SQPEVLVPIRLDMEIDGQKLRDWFTWNMNEKLMTPEMFSEILCDDLDLNPLTFVPAIASAIRQQIESY [A23W]: the abundance fitness was -0.144 ± 0.039.

With SQPEVLVPIRLDMEIDGQKLRDMFTWNMNEKLMTPEMFSEILCDDLDLNPLTFVPAIASAIRQQIESY [A23M], the abundance fitness came out at 0.048 ± 0.067. As to SQPEVLVPIRLDMEIDGQKLRDVFTWNMNEKLMTPEMFSEILCDDLDLNPLTFVPAIASAIRQQIESY [A23V], the abundance fitness came to 0.116 ± 0.054. The result for SQPEVLVPIRLDMEIDGQKLRDPFTWNMNEKLMTPEMFSEILCDDLDLNPLTFVPAIASAIRQQIESY [A23P] reads -0.599 ± 0.28; that for SQPEVLVPIRLDMEIDGQKLRDKFTWNMNEKLMTPEMFSEILCDDLDLNPLTFVPAIASAIRQQIESY [A23K], 0.102 ± 0.083; that for SQPEVLVPIRLDMEIDGQKLRDGFTWNMNEKLMTPEMFSEILCDDLDLNPLTFVPAIASAIRQQIESY [A23G], -0.291 ± 0.038. With SQPEVLVPIRLDMEIDGQKLRDTFTWNMNEKLMTPEMFSEILCDDLDLNPLTFVPAIASAIRQQIESY [A23T], the abundance fitness is 0.155 ± 0.056. For SQPEVLVPIRLDMEIDGQKLRDLFTWNMNEKLMTPEMFSEILCDDLDLNPLTFVPAIASAIRQQIESY [A23L], the abundance fitness was -0.387 ± 0.15. Turning to SQPEVLVPIRLDMEIDGQKLRDQFTWNMNEKLMTPEMFSEILCDDLDLNPLTFVPAIASAIRQQIESY [A23Q], the abundance fitness came out at 0.09 ± 0.09. Regarding SQPEVLVPIRLDMEIDGQKLRDIFTWNMNEKLMTPEMFSEILCDDLDLNPLTFVPAIASAIRQQIESY [A23I], the abundance fitness was -0.076 ± 0.17.

With SQPEVLVPIRLDMEIDGQKLRGAFTWNMNEKLMTPEMFSEILCDDLDLNPLTFVPAIASAIRQQIESY [D22G], the abundance fitness was -0.418 ± 0.28. For the variant SQPEVLVPIRLDMEIDGQKLRQAFTWNMNEKLMTPEMFSEILCDDLDLNPLTFVPAIASAIRQQIESY [D22Q], the abundance fitness stood at 0.052 ± 0.24. For the variant SQPEVLVPIRLDMEIDGQKLRTAFTWNMNEKLMTPEMFSEILCDDLDLNPLTFVPAIASAIRQQIESY [D22T], the abundance fitness was found to be 0.28 ± 0.077. Take SQPEVLVPIRLDMEIDGQKLRRAFTWNMNEKLMTPEMFSEILCDDLDLNPLTFVPAIASAIRQQIESY [D22R]: the abundance fitness turned out to be 0.284 ± 0.15.

On to SQPEVLVPIRLDMEIDGQKLRVAFTWNMNEKLMTPEMFSEILCDDLDLNPLTFVPAIASAIRQQIESY [D22V], for which the abundance fitness is -0.037 ± 0.16. The result for SQPEVLVPIRLDMEIDGQKLRSAFTWNMNEKLMTPEMFSEILCDDLDLNPLTFVPAIASAIRQQIESY [D22S] reads -0.21 ± 0.25; that for SQPEVLVPIRLDMEIDGQKLRNAFTWNMNEKLMTPEMFSEILCDDLDLNPLTFVPAIASAIRQQIESY [D22N], 0.005 ± 0.25; that for SQPEVLVPIRLDMEIDGQKLRHAFTWNMNEKLMTPEMFSEILCDDLDLNPLTFVPAIASAIRQQIESY [D22H], 0.385 ± 0.15.

With SQPEVLVPIRLDMEIDGQKLRLAFTWNMNEKLMTPEMFSEILCDDLDLNPLTFVPAIASAIRQQIESY [D22L], the abundance fitness is 0.001 ± 0.12. Turning to SQPEVLVPIRLDMEIDGQKLRCAFTWNMNEKLMTPEMFSEILCDDLDLNPLTFVPAIASAIRQQIESY [D22C], the abundance fitness stood at 0.035 ± 0.096. As to SQPEVLVPIRLDMEIDGQKLRWAFTWNMNEKLMTPEMFSEILCDDLDLNPLTFVPAIASAIRQQIESY [D22W], the abundance fitness worked out at 0.293 ± 0.3. Consider SQPEVLVPIRLDMEIDGQKLRMAFTWNMNEKLMTPEMFSEILCDDLDLNPLTFVPAIASAIRQQIESY [D22M], for which the abundance fitness was -0.277 ± 0.4. With SQPEVLVPIRLDMEIDGQKLPDAFTWNMNEKLMTPEMFSEILCDDLDLNPLTFVPAIASAIRQQIESY [R21P], the abundance fitness was -0.357 ± 0.14. As for SQPEVLVPIRLDMEIDGQKLEDAFTWNMNEKLMTPEMFSEILCDDLDLNPLTFVPAIASAIRQQIESY [R21E], the figure is -0.026 ± 0.085; as for SQPEVLVPIRLDMEIDGQKLIDAFTWNMNEKLMTPEMFSEILCDDLDLNPLTFVPAIASAIRQQIESY [R21I], 0.081 ± 0.094.

As to SQPEVLVPIRLDMEIDGQKLYDAFTWNMNEKLMTPEMFSEILCDDLDLNPLTFVPAIASAIRQQIESY [R21Y], the abundance fitness is -0.227 ± 0.085. On to SQPEVLVPIRLDMEIDGQKLDDAFTWNMNEKLMTPEMFSEILCDDLDLNPLTFVPAIASAIRQQIESY [R21D], for which the abundance fitness came out at 0.133 ± 0.13. As for SQPEVLVPIRLDMEIDGQKLNDAFTWNMNEKLMTPEMFSEILCDDLDLNPLTFVPAIASAIRQQIESY [R21N], the figure is 0.098 ± 0.072. As for SQPEVLVPIRLDMEIDGQKLWDAFTWNMNEKLMTPEMFSEILCDDLDLNPLTFVPAIASAIRQQIESY [R21W], the figure is -0.368 ± 0.13. In the case of SQPEVLVPIRLDMEIDGQKLHDAFTWNMNEKLMTPEMFSEILCDDLDLNPLTFVPAIASAIRQQIESY [R21H], the abundance fitness turned out to be 0.164 ± 0.076.

Take SQPEVLVPIRLDMEIDGQKLLDAFTWNMNEKLMTPEMFSEILCDDLDLNPLTFVPAIASAIRQQIESY [R21L]: the abundance fitness is -0.204 ± 0.062. As to SQPEVLVPIRLDMEIDGQKLKDAFTWNMNEKLMTPEMFSEILCDDLDLNPLTFVPAIASAIRQQIESY [R21K], the abundance fitness was 0.011 ± 0.13. For the variant SQPEVLVPIRLDMEIDGQKLMDAFTWNMNEKLMTPEMFSEILCDDLDLNPLTFVPAIASAIRQQIESY [R21M], the abundance fitness is -0.073 ± 0.085.

SQPEVLVPIRLDMEIDGQKLVDAFTWNMNEKLMTPEMFSEILCDDLDLNPLTFVPAIASAIRQQIESY [R21V]: the abundance fitness stood at 0.115 ± 0.04.

Take SQPEVLVPIRLDMEIDGQKLFDAFTWNMNEKLMTPEMFSEILCDDLDLNPLTFVPAIASAIRQQIESY [R21F]: the abundance fitness is -0.17 ± 0.11.

As to SQPEVLVPIRLDMEIDGQKLADAFTWNMNEKLMTPEMFSEILCDDLDLNPLTFVPAIASAIRQQIESY [R21A], the abundance fitness was -0.076 ± 0.056. Consider SQPEVLVPIRLDMEIDGQKLCDAFTWNMNEKLMTPEMFSEILCDDLDLNPLTFVPAIASAIRQQIESY [R21C], for which the abundance fitness is 0.096 ± 0.066.

With SQPEVLVPIRLDMEIDGQKLSDAFTWNMNEKLMTPEMFSEILCDDLDLNPLTFVPAIASAIRQQIESY [R21S], the abundance fitness is -0.054 ± 0.055. As for SQPEVLVPIRLDMEIDGQKLTDAFTWNMNEKLMTPEMFSEILCDDLDLNPLTFVPAIASAIRQQIESY [R21T], the abundance fitness worked out at 0.009 ± 0.075.
